Starred links: 1 amine or outer side, 2 acyl side, 3 side chain; linkers in the order of their positions; H or OH if unused. Positions of bridges follow the written chain, without caps; N, C: chain ends. Non-standard residues stand in square brackets, D forms with d. Groups on a side chain read outwards from the residue. Primed or numbered codes have the meaning given here. *: point of attachment. Aph(SaPr) = 4-amino-L-phenylalanine, ring amine acylated by 3-sulfamoylpropanoic acid, NS(=O)(=O)CCC(=O)Nc1ccc(C[C@H](N[*:1])C(=O)[*:2])cc1; Ttds(4) = 1,13-diamino-4,7,10-trioxatridecan-succinamic acid spacer, O=C(CCC(=O)[*:2])NCCCOCCOCCOCCCN[*:1]; Phe(3-NHCO(CH2)3SO2NH2) = N[C@@H](Cc1cccc(NC(=O)CCCS(N)(=O)=O)c1)C(=O)O; DOTA = O=C(O)CN1CCN(CC(=O)O)CCN(CC(=O)*)CCN(CC(=O)O)CC1; PPAc = 4-carboxymethyl piperazine linker; Desaminotyrosyl = O=C(CCc1ccc(O)cc1)*; mXylylene = c1cc(C[*:1])cc(C[*:2])c1; tBuAla = CC(C)(C)C[C@H](N)C(=O)O; Tic = O=C(O)[C@@H]1Cc2ccccc2CN1; Pen = CC(C)(S)[C@H](N)C(=O)O; Tle = CC(C)(C)[C@H](N)C(=O)O; Isovaleryl = CC(C)CC(=O)*; PPAc″ = not defined here; Apr = not defined here; Dap = NC[C@H](N)C(=O)O; Rni = not defined here; AEEA = NCCOCCOCC(=O)O; Aib = CC(C)(N)C(=O)O; Ttds″ = Ttds spacer; Sar = CNCC(=O)O
How the values were obtained:
[1] = biological target: T1, Fc-fusion protein of human carbonic anhydrase IX (human, UniProt Q16790 38-414); assay: SPR, captured hCAIX-Fc; pKD category A: >8.0
[2] = biological target: T1, Fc-fusion protein of human carbonic …; assay: SPR, captured hCAIX-Fc; t1/2 category A: >15.0 min
[3] = biological target: human carbonic anhydrase IX (CAIX) (human, UniProt Q16790 38-459); assay: FACS competition, HT-29 cells, tracer 3BP-2776; pIC50 category A: >8.0
Description: (§1) CAIX-expressing human HT-29 colorectal cancer cells (DSMZ, RRID: CVCL_0320) were cultured in McCoys's 5A modified medium (Biochrom, #F1015) including 10% fetal calf serum (FCS), 2 mM L-glutamine, 100 U/ml penicillin and 100 μg/mL streptomycin. Cells were detached with Accutase (Biolegend, #423201) and washed in FACS buffer (PBS including 1% FCS). Cells were diluted in FACS buffer to a final concentration of 500.000 cells per ml. 200 μL of the cell suspension were transferred to a u-shaped non-binding 96-well plate (Greiner) and cells were washed in ice-cold FACS buffer.
(§2) When biotinylated compounds were used an additional incubation step with 1 μg/mL APC-Streptavidin (Miltenyi; #130-106-791) in 50 μL FACS buffer for 30 minutes on ice was performed.
(§3) Cells were washed twice with ice-cold FACS buffer and analyzed in an Attune NxT flow cytometer (Thermo Fisher). Median fluorescence intensities (MFI) of the APC/Cy5-channel were calculated by Attune NxT software.

[4] = biological target: human carbonic anhydrase 9 (CAIX) (human, UniProt Q16790 38-459); assay: FACS competition on HT-29 cells against tracer 3BP-2776; pIC50 category B = pIC50 7.1-8.0
Description: as §1, §2, §3

pKD [1] [pkd] | t1/2 (half-life of the complex, SPR) [2] [min] | pIC50 [3] [pic50] | pIC50 [4] [pic50] | Binder
> 8 | > 15 | > 8 | – | {DOTA-PPAc}-ECE[dP]D[Phe(3-NHCO(CH2)3SO2NH2)]LTW[Dap]C-NH2 (lactam 1-10; linker 2-11 via mXylylene) [3BP-4502]
– | – | – | 7.1 to 8 | Ac-V[Tic]CE[dP]DWLTWSC-NH2 (linker 3-12 via mXylylene; SMILES CC(=O)N[C@H](C(=O)N1Cc2ccccc2C[C@H]1C(=O)N[C@H]1CSCc2cccc(c2)CSC[C@@H](C(N)=O)NC(=O)[C@H](CO)NC(=O)[C@H](Cc2c[nH]c3ccccc23)NC(=O)[C@H]([C@@H](C)O)NC(=O)[C@H](CC(C)C)NC(=O)[C@H](Cc2c[nH]c3ccccc23)NC(=O)[C@H](CC(=O)O)NC(=O)[C@H]2CCCN2C(=O)[C@H](CCC(=O)O)NC1=O)C(C)C, also called Ac-Val-Tic-[Cys(3MeBn)-Glu-pro-Asp-Trp-Leu-Thr-Trp-Ser-Cys]-NH2) [3BP-3572]
> 8 | > 15 | > 8 | – | {DOTA-PPAc″}-YCE[dP]D[Phe(3-NHCO(CH2)3SO2NH2)]LTWSC-NH2 (linker 2-11 via mXylylene; reading uncertain) [3BP-4448]
– | – | – | 7.1 to 8 | Isovaleryl-RCE[dP]DWLTWE([Apr-AEEA-DOTA])C-NH2 (linker 2-11 via 3MeBn; reading uncertain, also called Iva-Arg-[Cys(3MeBn)-Glu-pro-Asp-Trp-Leu-Thr-Trp-Glu(NH-Apr-O2Oc-DOTA′)-Cys]-NH2) [3BP-3741]
– | – | – | 7.1 to 8 | {DOTA-Ttds″}-VYCE[Sar]DWLTWAC-NH2 (linker 3-12 via mXylylene; not fully specified, also called DOTA-Ttds-Val-Tyr-[Cys(3MeBn)-Glu-Nmg-Asp-Trp-Leu-Thr-Trp-Ala-Cys]-NH2) [3BP-3278]
> 8 | > 15 | > 8 | – | {DOTA-PPAc}-ECE[dP]D[Aph(SaPr)]LTW[Dap]C-NH2 (lactam 1-10; linker 2-11 via mXylylene) [3BP-4504]
> 8 | > 15 | > 8 | – | {DOTA}-ECE[dP]D[Aph(SaPr)]LTW[Dap]C-NH2 (lactam 1-10; linker 2-11 via mXylylene; SMILES CC(C)C[C@@H]1NC(=O)[C@H](Cc2ccc(NC(=O)CCS(N)(=O)=O)cc2)NC(=O)[C@H](CC(=O)O)NC(=O)[C@H]2CCCN2C(=O)[C@H](CCC(=O)O)NC(=O)[C@@H]2CSCc3cccc(c3)CSC[C@@H](C(N)=O)NC(=O)[C@H](CNC(=O)CC[C@H](NC(=O)CN3CCN(CC(=O)O)CCN(CC(=O)O)CCN(CC(=O)O)CC3)C(=O)N2)NC(=O)[C@H](Cc2c[nH]c3ccccc23)NC(=O)[C@H]([C@@H](C)O)NC1=O) [3BP-4505]
– | – | > 8 | – | {DOTA-PPAc″}-YCE[dP]D[Phe(3-NHCO(CH2)3SO2NH2)][tBuAla]TWSC-NH2 (linker 2-11 via mXylylene; reading uncertain) [3BP-4449]
– | – | – | 7.1 to 8 | Desaminotyrosyl-CE[dP]DWLTWSC-NH2 (linker 1-10 via 3MeBn, also called 4OHPhp-[Cys(3MeBn)-Glu-pro-Asp-Trp-Leu-Thr-Trp-Ser-Cys]-NH2) [3BP-3731]
– | – | – | 7.1 to 8 | Ac-VYCE[dP]DW[Aib]TWAC-NH2 (linker 3-12 via mXylylene; SMILES CC(=O)N[C@H](C(=O)N[C@@H](Cc1ccc(O)cc1)C(=O)N[C@H]1CSCc2cccc(c2)CSC[C@@H](C(N)=O)NC(=O)[C@H](C)NC(=O)[C@H](Cc2c[nH]c3ccccc23)NC(=O)[C@H]([C@@H](C)O)NC(=O)C(C)(C)NC(=O)[C@H](Cc2c[nH]c3ccccc23)NC(=O)[C@H](CC(=O)O)NC(=O)[C@H]2CCCN2C(=O)[C@H](CCC(=O)O)NC1=O)C(C)C, also called Ac-Val-Tyr-[Cys(3MeBn)-Glu-pro-Asp-Trp-Aib-Thr-Trp-Ala-Cys]-NH2) [3BP-3502]
– | – | – | 7.1 to 8 | Ac-VY[Pen]EGDWLTWQC-NH2 (linker 3-12 via mXylylene; SMILES CC(=O)N[C@H](C(=O)N[C@@H](Cc1ccc(O)cc1)C(=O)N[C@@H]1C(=O)N[C@@H](CCC(=O)O)C(=O)NCC(=O)N[C@@H](CC(=O)O)C(=O)N[C@@H](Cc2c[nH]c3ccccc23)C(=O)N[C@@H](CC(C)C)C(=O)N[C@@H]([C@@H](C)O)C(=O)N[C@@H](Cc2c[nH]c3ccccc23)C(=O)N[C@@H](CCC(N)=O)C(=O)N[C@H](C(N)=O)CSCc2cccc(c2)CSC1(C)C)C(C)C) [3BP-3063]

The next lines start with the binder.

Binder | pKD [1] [pkd] | t1/2 (half-life of the complex, SPR) [2] [min] | pIC50 [3] [pic50] | pIC50 [4] [pic50]
Ac-VYCEGDW[Tle]TWQC-NH2 (linker 3-12 via mXylylene; SMILES CC(=O)N[C@H](C(=O)N[C@@H](Cc1ccc(O)cc1)C(=O)N[C@H]1CSCc2cccc(c2)CSC[C@@H](C(N)=O)NC(=O)[C@H](CCC(N)=O)NC(=O)[C@H](Cc2c[nH]c3ccccc23)NC(=O)[C@H]([C@@H](C)O)NC(=O)[C@H](C(C)(C)C)NC(=O)[C@H](Cc2c[nH]c3ccccc23)NC(=O)[C@H](CC(=O)O)NC(=O)CNC(=O)[C@H](CCC(=O)O)NC1=O)C(C)C, also called Ac-Val-Tyr-[Cys(3MeBn)-Glu-Gly-Asp-Trp-Tle-Thr-Trp-Gln-Cys]-NH2) [3BP-3066] | – | – | – | 7.1 to 8
{DOTA-PPAc″}-RCE[dP]D[Phe(3-NHCO(CH2)3SO2NH2)]LTWSC-NH2 (linker 2-11 via mXylylene; reading uncertain) [3BP-4451] | – | – | > 8 | –
{DOTA-Rni}-YCE[dP]D[Phe(3-NHCO(CH2)3SO2NH2)]LTWSC-NH2 (linker 2-11 via mXylylene; reading uncertain) [3BP-4455] | > 8 | > 15 | > 8 | –
{DOTA-PPAc″}-SCE[dP]D[Phe(3-NHCO(CH2)3SO2NH2)]LTWSC-NH2 (linker 2-11 via mXylylene; reading uncertain) [3BP-4450] | – | – | > 8 | –
Isovaleryl-DCE[dP]DWLTWE([Apr-AEEA-DOTA])C-NH2 (linker 2-11 via mXylylene; reading uncertain, also called Iva-Asp-[Cys(3MeBn)-Glu-pro-Asp-Trp-Leu-Thr-Trp-Glu(NH-Apr-O2Oc-DOTA′)-Cys]-NH2) [3BP-3871] | – | – | – | 7.1 to 8
Isovaleryl-ECE[dP]DWLTWE([Apr-AEEA-DOTA])C-NH2 (linker 2-11 via mXylylene; reading uncertain, also called Iva-Glu-[Cys(3MeBn)-Glu-pro-Asp-Trp-Leu-Thr-Trp-Glu(NH-Apr-O2Oc-DOTA′)-Cys]-NH2) [3BP-3872] | – | – | – | 7.1 to 8
Ac-VYCEGDWLAWQC-NH2 (linker 3-12 via mXylylene; SMILES CC(=O)N[C@H](C(=O)N[C@@H](Cc1ccc(O)cc1)C(=O)N[C@H]1CSCc2cccc(c2)CSC[C@@H](C(N)=O)NC(=O)[C@H](CCC(N)=O)NC(=O)[C@H](Cc2c[nH]c3ccccc23)NC(=O)[C@H](C)NC(=O)[C@H](CC(C)C)NC(=O)[C@H](Cc2c[nH]c3ccccc23)NC(=O)[C@H](CC(=O)O)NC(=O)CNC(=O)[C@H](CCC(=O)O)NC1=O)C(C)C) [3BP-3056] | – | – | – | 7.1 to 8
Ac-[dV]YCEGDWLTWQC-NH2 (linker 3-12 via mXylylene; SMILES CC(=O)N[C@@H](C(=O)N[C@@H](Cc1ccc(O)cc1)C(=O)N[C@H]1CSCc2cccc(c2)CSC[C@@H](C(N)=O)NC(=O)[C@H](CCC(N)=O)NC(=O)[C@H](Cc2c[nH]c3ccccc23)NC(=O)[C@H]([C@@H](C)O)NC(=O)[C@H](CC(C)C)NC(=O)[C@H](Cc2c[nH]c3ccccc23)NC(=O)[C@H](CC(=O)O)NC(=O)CNC(=O)[C@H](CCC(=O)O)NC1=O)C(C)C) [3BP-3043] | – | – | – | 7.1 to 8
Ac-VYCEGDWLTWQC[Ttds(4)][dK](DOTA)-NH2 (linker 3-12 via mXylylene; SMILES CC(=O)N[C@H](C(=O)N[C@@H](Cc1ccc(O)cc1)C(=O)N[C@H]1CSCc2cccc(c2)CSC[C@@H](C(=O)NCCCOCCOCCOCCCNC(=O)CCC(=O)N[C@H](CCCCNC(=O)CN2CCN(CC(=O)O)CCN(CC(=O)O)CCN(CC(=O)O)CC2)C(N)=O)NC(=O)[C@H](CCC(N)=O)NC(=O)[C@H](Cc2c[nH]c3ccccc23)NC(=O)[C@H]([C@@H](C)O)NC(=O)[C@H](CC(C)C)NC(=O)[C@H](Cc2c[nH]c3ccccc23)NC(=O)[C@H](CC(=O)O)NC(=O)CNC(=O)[C@H](CCC(=O)O)NC1=O)C(C)C) [3BP-2949] | – | – | – | 7.1 to 8

Reference: patent US20250339569A1 (3B PHARMACEUTICALS, published 2025)
